Reference: patent EP3338799A1 (AlderBio Holdings LLC, dated 2018)

Assays:
Experiment in all cases: surface plasmon resonance, 25 °C
mouse IL-6 = biological target: T1, mouse IL-6 (mouse, UniProt P08505 25-211)
T1 construct: also called IL-6 from mouse
T1 sequence (looked up): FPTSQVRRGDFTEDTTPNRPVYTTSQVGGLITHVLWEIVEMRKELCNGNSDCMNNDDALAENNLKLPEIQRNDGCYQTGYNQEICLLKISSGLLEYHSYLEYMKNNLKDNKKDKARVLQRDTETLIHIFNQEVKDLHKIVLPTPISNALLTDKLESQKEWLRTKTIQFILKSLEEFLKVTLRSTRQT

human IL-6 = biological target: T2, human IL-6 (human, UniProt P05231 30-212)
T2 construct: also called huIL-6; hIL-6

rat IL-6 = biological target: T3, rat IL-6 (rat, UniProt P20607 25-211)
T3 construct: also called IL-6 from rat
T3 sequence (looked up): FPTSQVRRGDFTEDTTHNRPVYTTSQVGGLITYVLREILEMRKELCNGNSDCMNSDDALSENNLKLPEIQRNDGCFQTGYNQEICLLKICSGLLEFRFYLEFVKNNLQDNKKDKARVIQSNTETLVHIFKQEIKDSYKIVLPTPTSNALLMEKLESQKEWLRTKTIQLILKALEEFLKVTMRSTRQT

cynomolgus monkey IL-6 = biological target: T4, cynomolgus monkey IL-6 (cynomolgus monkey, UniProt P79341 28-212, limits assumed)
T4 construct: also called IL-6 of cynomolgus monkey
T4 sequence (looked up): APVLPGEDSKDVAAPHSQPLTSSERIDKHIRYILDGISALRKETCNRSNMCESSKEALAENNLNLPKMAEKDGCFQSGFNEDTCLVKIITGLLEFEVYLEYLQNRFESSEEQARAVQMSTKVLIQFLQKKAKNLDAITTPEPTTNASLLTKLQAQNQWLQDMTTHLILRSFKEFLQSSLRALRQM

B1: antibody Ab1 (antibody, human IgG1, kappa, N297A, V domains shown)
VH: EVQLVESGGGLVQPGGSLRLSCAASGFSLSNYYVTWVRQAPGKGLEWVGIIYGSDETAYATSAIGRFTISRDNSKNTLYLQMNSLRAEDTAVYYCARDDSSDWDAKFNLWGQGTLVTVSS
VL: AIQMTQSPSSLSASVGDRVTITCQASQSINNELSWYQQKPGKAPKLLIYRASTLASGVPSRFSGSGSGTDFTLTISSLQPDDFATYYCQQGYSLRNIDNAFGGGTKVEIKR
notes: It is a humanized (from rabbit), full length, aglycosylated antibody with human kappa and IgG gamma-1 constant regions, produced in Pichia pastoris; also called Ab1 monoclonal antibody; anti-IL-6 antibody Ab1
Work on B1 yielded a Kd (mouse IL-6) of 0.4 nM, a Kd (human IL-6) of 0.004 nM and a Kd (rat IL-6) of 1.4 nM. For the same binder, the Kd (cynomolgus monkey IL-6) was 0.031 nM.
